This passage reports binding result, Kd and koff results from publication PMC6308234 (Scientific Reports, 2018).

Assay [1] deals with T1, DENV-2 nonstructural protein 1 (NS1), recombinant (Dengue virus 2, strain …, UniProt P29990).
T1 construct: also called DENV-2 NS1; NS1 from DENV-2; source: bought: Native Antigen Company (recombinant)
Put plainly: MagPlex (Luminex) bead assay, direct binding. As to conditions: both partners purified.

The target in assay [2] is T2, DENV-3 nonstructural protein 1 (NS1), recombinant (Dengue virus 3, strain Sri …, UniProt Q6YMS4).
T2 construct: also called DENV-3 NS1; NS1 from DENV-3; source: bought: Native Antigen Company (recombinant)
The experiment in a line: SPR. The settings on record: both partners purified.
Target sequence in this assay (Q6YMS4 774-1125): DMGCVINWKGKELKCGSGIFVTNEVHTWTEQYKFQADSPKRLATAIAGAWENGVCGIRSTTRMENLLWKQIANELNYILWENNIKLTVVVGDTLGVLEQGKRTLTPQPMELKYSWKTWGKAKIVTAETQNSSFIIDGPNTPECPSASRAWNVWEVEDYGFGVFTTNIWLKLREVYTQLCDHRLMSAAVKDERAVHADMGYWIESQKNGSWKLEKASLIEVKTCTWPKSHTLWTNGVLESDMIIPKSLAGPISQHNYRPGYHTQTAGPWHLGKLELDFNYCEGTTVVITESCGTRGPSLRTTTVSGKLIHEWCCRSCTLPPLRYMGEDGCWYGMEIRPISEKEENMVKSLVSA

Assay [3] addresses T3, DENV-1 nonstructural protein 1 (NS1), recombinant (Dengue virus 1, strain Nauru/West …, UniProt P17763).
T3 construct: also called DENV-1 NS1; NS1 from DENV-1; source: bought: Native Antigen Company (recombinant)
The experiment in a line: SPR. The settings on record: both partners purified.

Assay [4] deals with T1, DENV-2 nonstructural protein 1 (NS1), …. The experiment in a line: SPR. The settings on record: both partners purified.
Assay [5] deals with T4, DENV-4 nonstructural protein 1 (NS1), recombinant (Dengue virus 4, strain …, UniProt P09866).
T4 construct: also called DENV-4 NS1; NS1 from DENV-4; source: bought: Native Antigen Company (recombinant)
The experiment in a line: SPR. As to conditions: both partners purified.
Target sequence in this assay (P09866 775-1126): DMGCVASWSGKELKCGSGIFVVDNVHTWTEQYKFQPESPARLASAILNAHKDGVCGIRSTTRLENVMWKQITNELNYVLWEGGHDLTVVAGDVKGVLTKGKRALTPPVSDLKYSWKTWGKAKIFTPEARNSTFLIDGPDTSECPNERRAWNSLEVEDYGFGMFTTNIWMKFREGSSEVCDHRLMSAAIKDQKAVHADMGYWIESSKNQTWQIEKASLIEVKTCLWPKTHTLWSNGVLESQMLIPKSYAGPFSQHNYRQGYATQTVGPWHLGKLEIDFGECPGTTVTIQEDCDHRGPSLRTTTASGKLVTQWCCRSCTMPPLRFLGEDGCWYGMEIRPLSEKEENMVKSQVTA

Assay [6] addresses T2, DENV-3 nonstructural protein 1 (NS1), …. The experiment in a line: SPR. The settings on record: both partners purified. The source holds these as a separate data set.
The target in assay [7] is T3, DENV-1 nonstructural protein 1 (NS1), …. The experiment in a line: SPR. The settings on record: both partners purified. The source holds these as a separate data set.
Assay [8] addresses T1, DENV-2 nonstructural protein 1 (NS1), …. The experiment in a line: SPR. As to conditions: both partners purified. The source holds these as a separate data set.
Assay [9] concerns the target T4, DENV-4 nonstructural protein 1 (NS1), …. Put plainly: SPR. The settings on record: both partners purified. The source holds these as a separate data set.
Assay [10] has as its target T5, DENV-2 nonstructural protein 1 (NS1), recombinant (dengue virus serotype 2 (DENV-2)).
T5 chain: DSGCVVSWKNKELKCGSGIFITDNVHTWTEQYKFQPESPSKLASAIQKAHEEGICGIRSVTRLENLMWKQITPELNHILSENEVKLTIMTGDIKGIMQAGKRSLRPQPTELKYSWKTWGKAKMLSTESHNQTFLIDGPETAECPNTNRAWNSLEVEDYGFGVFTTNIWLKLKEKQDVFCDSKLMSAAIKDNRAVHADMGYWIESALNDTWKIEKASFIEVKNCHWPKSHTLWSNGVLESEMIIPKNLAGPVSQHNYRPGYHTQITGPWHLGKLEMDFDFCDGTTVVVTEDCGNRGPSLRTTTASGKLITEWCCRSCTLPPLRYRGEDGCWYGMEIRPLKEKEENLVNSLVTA
The experiment in a line: SPR; sdAb immobilized.

Assay [11] deals with T5, DENV-2 nonstructural protein 1 (NS1), …. The experiment in a line: SPR; sdAb immobilized.
Assay [12] deals with T6, DENV-1 nonstructural protein 1 (NS1), recombinant (dengue virus serotype 1 (DENV-1)).
T6 chain: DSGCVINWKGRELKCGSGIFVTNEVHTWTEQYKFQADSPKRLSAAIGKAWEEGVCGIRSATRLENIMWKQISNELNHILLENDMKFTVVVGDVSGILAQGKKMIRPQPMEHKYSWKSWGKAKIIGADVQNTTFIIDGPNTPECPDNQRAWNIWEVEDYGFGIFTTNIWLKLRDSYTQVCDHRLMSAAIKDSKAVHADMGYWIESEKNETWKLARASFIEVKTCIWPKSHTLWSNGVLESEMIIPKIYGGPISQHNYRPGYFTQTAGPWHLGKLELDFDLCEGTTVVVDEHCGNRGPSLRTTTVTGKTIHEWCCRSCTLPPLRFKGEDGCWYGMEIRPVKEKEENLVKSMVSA
Put plainly: SPR; sdAb immobilized.

B1: biotinylated sdAb DB5 (VHH)
VHH: DVQLQASGGGLVQDGGSLRLSCAASGLGFRIHSMGWYRQAPGKARDLVAVITDSGQTNYAPSVKGRFTISRESAGNTVYLQMNSLKPDDTAVYYCAVTTWDPHSYWGQGTQVTVSS
notes: also called Bt-DB5
With B1, the binding result in assay [1] is recorded as “no binding”.

B2: sdAb DC7 (VHH)
VHH: EVQLQASGGGSVQAGGSLRLSCAHSSITVPDYTIGWYRRAPGKGGEEVSLISMHGGRTWYAGSVKGRFAISRDSVKNTVYLQMNNLKPEDTDIYYCGGTTFGLAAAPNEYDSWGQGSQVTVSS
notes: source: E. coli Turner (DE3), pET22b, periplasmic, purified (Ni-Sepharose, SEC)
On to B2, for which the Kd was found to be 1.2 nM in assay [2]; 9.1 nM in assay [3]; 2.6 nM in assay [4]; 2.2 nM in [5]; 1.7 nM in [6]; 0.8 nM in assay [7]. Further, the Kd in assay [8] was found to be 0.6 nM; in [9] it was 0.7 nM; in assay [10], 0.556 nM. The koff is 0.000155 s⁻¹ in assay [11] and 0.00021 s⁻¹ in assay [12].
